Experimental data reported in US20070059309A1 (Genentech, published 2007).

B1: murine anti-human IFN-α monoclonal antibody 9F3 (antibody, IgG2, V domains shown)
VL: DIVLTQSPASLAVSLGQRATISCRASQSVSTSSYSYMHWYQQKPGQPPKVLISYASNLESGVPARFSGSGSGTDFTLNIHPVEEGDTATYFCQHSWGIPRTFGAGTKLELRR
V domain: EVQLQQSGPELVKPGASVKISCKTSGYTFTEYIIHWVKQGHGRSLEWIGSINPDYDITNYNQRFKGKATLTLDKSSRTAYLELRSLTSEDSAVYYCASWISDFFDYWGQGTTLMVSA
B2: chimeric protein CH8-2 (antibody, V domains shown)
VL: B1 VL
V domain: B1 V domain

Legend:
Test in all cases: cell-based or functional assay
recombinant human IFN-α4 = recombinant human IFN-α4 (human, UniProt P05014 24-189)
recombinant human IFN-α5 [1] = molecular target: T1, recombinant human IFN-α5 (human, UniProt P01569 24-189, limits assumed)
recombinant human IFN-α5 [2] = molecular target: T1, recombinant human IFN-α5; remark: listed apart in the source
recombinant human IFN-α1 = recombinant human IFN-α1 (human)
recombinant human IFN-α1 (human), sequence (P01562 24-189): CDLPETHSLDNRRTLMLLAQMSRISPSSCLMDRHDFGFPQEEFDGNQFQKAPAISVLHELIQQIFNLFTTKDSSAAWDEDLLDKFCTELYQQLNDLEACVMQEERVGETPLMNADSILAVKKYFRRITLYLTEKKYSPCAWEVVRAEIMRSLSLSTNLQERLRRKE

T1 sequence (P01569 24-189 limits assumed): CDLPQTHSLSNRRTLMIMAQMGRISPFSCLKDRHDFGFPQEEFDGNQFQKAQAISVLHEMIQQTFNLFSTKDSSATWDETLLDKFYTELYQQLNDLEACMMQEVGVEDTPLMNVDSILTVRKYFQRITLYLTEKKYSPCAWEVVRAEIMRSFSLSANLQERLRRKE
recombinant human IFN-α4, sequence (P05014 24-189 limits assumed): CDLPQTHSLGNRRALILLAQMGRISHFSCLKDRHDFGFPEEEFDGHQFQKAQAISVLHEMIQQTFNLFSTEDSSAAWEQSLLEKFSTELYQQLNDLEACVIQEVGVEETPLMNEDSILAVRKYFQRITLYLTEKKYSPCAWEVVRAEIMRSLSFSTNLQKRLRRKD

Row | Binder | EC50 (read off the curve); neutralization of anti-viral activity, EMC virus / A549 cells (recombinant human IFN-α4) | EC50 (read off the curve); neutralization of anti-viral activity, EMC virus / A549 cells (recombinant human IFN-α5 [1]) | EC50 (read off the curve); neutralization of anti-viral activity, EMC virus / A549 cells [left panel] (recombinant human IFN-α5 [2]) | EC50 (read off the curve); neutralization of anti-viral activity, EMC virus / A549 cells [right panel] (recombinant human IFN-α1)
1 | B1 | ~1 µg/mL | ~1 µg/mL | ~0.2 µg/mL | 
2 | B2 |  |  |  | ~2 µg/mL
